Measured values taken from IntAct's records for PubMed 24855951.

Molecular target: dtx_drome dx (UniProt Q23985)
Sequence (Q23985 whole entry): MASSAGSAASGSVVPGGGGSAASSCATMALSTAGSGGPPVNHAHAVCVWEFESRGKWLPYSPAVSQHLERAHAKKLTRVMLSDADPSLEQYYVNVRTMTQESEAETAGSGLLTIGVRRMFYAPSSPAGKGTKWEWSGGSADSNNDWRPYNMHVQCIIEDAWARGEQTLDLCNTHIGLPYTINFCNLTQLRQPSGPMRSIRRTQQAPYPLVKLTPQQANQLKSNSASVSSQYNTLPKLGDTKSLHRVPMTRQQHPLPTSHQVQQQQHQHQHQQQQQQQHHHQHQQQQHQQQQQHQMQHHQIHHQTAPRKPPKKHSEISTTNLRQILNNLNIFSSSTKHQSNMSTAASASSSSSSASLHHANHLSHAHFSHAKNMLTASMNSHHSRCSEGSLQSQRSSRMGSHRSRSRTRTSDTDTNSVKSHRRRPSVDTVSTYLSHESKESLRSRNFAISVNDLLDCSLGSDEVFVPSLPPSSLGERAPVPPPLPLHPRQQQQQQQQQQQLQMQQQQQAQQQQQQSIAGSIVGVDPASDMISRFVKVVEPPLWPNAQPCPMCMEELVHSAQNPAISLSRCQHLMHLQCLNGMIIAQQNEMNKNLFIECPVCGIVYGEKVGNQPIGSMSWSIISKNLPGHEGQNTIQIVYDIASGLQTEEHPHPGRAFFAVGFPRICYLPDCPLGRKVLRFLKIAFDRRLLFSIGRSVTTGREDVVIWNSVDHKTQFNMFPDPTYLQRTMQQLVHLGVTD

effect of a mutation on the interaction: disrupting interaction strength
Substance: Neurogenic locus Notch protein (Drosophila melanogaster (Fruit fly)), P07207 R2027A
